In paper PMC8208711 one finds Ca2+ flux in HEK-CCR5 cells, decrease of Emax against [6P4]CCL5 data, which are given here for two substances.

The target of the assay is human wild-type full-length CC chemokine receptor 5 (CCR5) (human) (UniProt P51681).

In turn, [6P4]CCL5 D5K (ligand) showed a Ca2+ flux in HEK-CCR5 cells, decrease of Emax against [6P4]CCL5 of 60%.

In turn, [6P4]CCL5 D5A (ligand) displayed a Ca2+ flux in HEK-CCR5 cells, decrease of Emax against [6P4]CCL5 of 30%.
